The record followed here is patent US20240148890A1 (SUTRO BIOPHARMA, published 2024).

The assay concerns the target folate receptor alpha (FOLR1) (human, UniProt P15328 25-234). In words: cell-based or functional assay.

folate receptor alpha (FOLR1), sequence (P15328 25-234 limits assumed): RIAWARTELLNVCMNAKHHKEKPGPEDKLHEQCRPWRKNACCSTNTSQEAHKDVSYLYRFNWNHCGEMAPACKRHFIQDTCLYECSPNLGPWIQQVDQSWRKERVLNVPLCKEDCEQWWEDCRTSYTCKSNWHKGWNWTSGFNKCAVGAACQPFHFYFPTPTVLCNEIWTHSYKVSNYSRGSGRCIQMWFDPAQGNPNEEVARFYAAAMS

B1: Conjugate P (FOLR1-directed site-specific antibody-drug conjugate; IgG antibody with VH region SEQ ID NO: 362 and VL region SEQ ID NO: 367, conjugate formula … (antibody, V domains shown)
VH: EVQLVESGGGLVQPGGSLRLSCAASGFNIRTQSIHWVRQAPGKGLEWIGDIFPIDGITDYADSVKGRFTISADTSKNTAYLQMNSLRAEDTAVYYCARGSWSWPSGMDYYLDYWGQGTLVTVSS
VL: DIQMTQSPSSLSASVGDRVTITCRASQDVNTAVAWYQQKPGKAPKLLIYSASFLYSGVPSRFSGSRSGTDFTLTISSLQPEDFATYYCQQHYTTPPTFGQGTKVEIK
modifications: para-azidomethylphenylalanine residues substituting for Y180 and F404 (printed as 'of each VH region'; elsewhere given as heavy chain positions), each linked to the hemiasterlin linker-payload of conjugate formula P (n=4)
Take B1: the “in vitro cytotoxicity IC50 against CBF/GLIS-transduced CB HPSCs (which upregulate FOLR1)” value was found to be 4.2 nM and the “in vitro cytotoxicity IC50 against MV4;11 AML cell line engineered to express FOLR1 (MV4;11 FOLR1+)” value stood at 0.1 nM.
